Assay [1] addresses human ROR1 on cells (human, UniProt Q01973 30-937). As to the kind of experiment: cell-based or functional assay.
Assay [2] has as its target T1, human CD3 on Jurkat cells (human, UniProt P09693 23-182; P04234 22-171; P07766 23-207).
T1 construct: GenBank NP_000064.1, NP_000723.1, NP_000724.1
As to the kind of experiment: flow cytometry on Jurkat cells. How it is done: To quantitate CD3 binding, 2.5E5 Jurkat cells were used for each condition. A 2× stock of the cells was made by resuspending the cells to 5E6/mL by placing in 50 μL of PBS with 2% FBS. Next, the cells were diluted with an equal volume of 2× stock of the test bispecific binding molecule. The cells and antibody were co-incubated on ice for 20 min. The cells were then washed 3 times with 300 μL of FACS buffer and were resuspended in 100 μL of goat anti-human Fc-PE conjugate antibody (Invitrogen cat. #12499882) at 1:500 dilution and incubated on ice with reduced light for 20 min. The cells were then washed 3 times with 300 μL of FACS buffer and fixed with 2% paraformaldehyde for 10 min at 25° C. The cells were washed 2 times with 300 μL of FACS buffer and analyzed on a Miltenyi MACSQuant Analyzer.
A general note: In flow cytometry, cells or beads pass a laser one at a time.

The target of assay [3] is T2, recombinant human ROR1 extracellular domain (human, UniProt Q01973 30-406).
T2 construct: Bought (Acro Biosystems cat. R01-H522Y); whole entry named; also called ROR1-ECD; immobilized ROR1
As to the kind of experiment: ELISA, immobilised ROR1 ECD, construct titrated. Here is the method: A 96-well Costar-3366 plate was coated with 50 μL/well of 2 μg/mL […] (Acro Biosystems cat. #R01-H522Y) in PBS overnight at 4° C. The plate was rinsed once with PBS containing 0.05% Tween 20 (PBS-T) and blocked with 100 μL/well of 5% non-fat milk in PBS (5% M-P) for 1 h at 25° C. Antibody samples were serially diluted 2-fold using 5% M-P and were incubated for 1 h at 25° C. (50 μL/well). The plate was washed three times with PBS-T and 50 μL/well anti-human kappa, HRP conjugate (Southern Biotech cat. #2060-05) diluted 10,000-fold in 5% M-P was added for 1 h at 25° C. The plate was washed three times with PBS-T, developed with 50 μL/well 1-Step Ultra TMB-ELISA (Thermo Scientific cat. #34028). The reaction was terminated by the addition of 2 N H₂SO₄ and the A450 was determined using a Spectramax plate reader.
Next, the binding of bispecific binding molecules to ROR was characterized by ELISA using recombinantly-expressed extracellular domain of RORL. ROR was immobilized on a microtiter plate, the bispecific binding molecules were titrated, and binding was quantitated with an anti-human kappa-HRP reagent. Consistent with the cell binding data, all constructs bound ROR1 in a concentration-dependent manner (FIG. 6). Moreover, monovalent ROR1 constructs 13-15 bound less tightly than all but two of the bivalent constructs.

The target of assay [4] is T3, soluble biotinylated human ROR1 extracellular domain (human, UniProt Q01973 30-406, biotinylated with EZ-Link Sulfo-NHS-LC-Biotin at a 1:5 molar ratio).
T3 construct: Acro Biosystems cat; whole entry named; also called b-ROR1; soluble b-ROR1
As to the kind of experiment: ELISA, captured construct, biotinylated ROR1 titrated. Here is the method:
To measure the binding of bispecific constructs to soluble ROR1, a 96-well Costar-3366 plate was coated with 50 μL/well of 2 μg/mL goat anti-human kappa (Southern Biotech cat. #2060-01) in PBS overnight at 4° C. The plate was rinsed once with PBS-T, blocked with 100 μL/well 5% M-P for 1 h at 25° C., rinsed once with PBS-T, and 2 μg/mL of the bispecific binding molecule was added and incubated for 1 h at 25° C. The plate was washed three times with PBS-T. Biotinylated ROR1 was diluted serially, 3-fold in 5% M-P and was incubated for 1 h at 25° C. (50 μL/well). The plate was washed three times with PBS-T. To detect the binding of b-ROR1, 50 μL/well Neutravidin-HRP (Pierce cat. #31030) diluted 1:5000 in 1% BSA-PBS was added for 1 h at 25° C. The plate was washed three times with PBS-T, then developed with 50 μL/well 1-Step Ultra TMB-ELISA (Thermo Scientific cat. #34028). The reaction was terminated by the addition of 2 N H₂SO₄ and the A450 was determined using a Spectramax plate reader.
The stronger binding observed with bivalent constructs versus monovalent constructs in cell assays and ELISAs in which the antigen is immobilized is consistent with an avidity effect. To determine if this was the case, binding to soluble monomeric ROR1 was assessed by immobilizing the bispecific binding molecules on a microtiter plate coated with goat anti-human kappa antibody and titrating biotinylated RORL. All bispecific binding molecules were active in this format (FIG. 7), and in most cases, there were no notable differences between monovalent and bivalent constructs.

Several values for one entry are separate records, joined by “and”; a condition that tells them apart may be missing. Identical values can stand only once.

The term Kd denotes the equilibrium constant for the complex coming apart.

T2 sequence (Q01973 30-406 limits assumed): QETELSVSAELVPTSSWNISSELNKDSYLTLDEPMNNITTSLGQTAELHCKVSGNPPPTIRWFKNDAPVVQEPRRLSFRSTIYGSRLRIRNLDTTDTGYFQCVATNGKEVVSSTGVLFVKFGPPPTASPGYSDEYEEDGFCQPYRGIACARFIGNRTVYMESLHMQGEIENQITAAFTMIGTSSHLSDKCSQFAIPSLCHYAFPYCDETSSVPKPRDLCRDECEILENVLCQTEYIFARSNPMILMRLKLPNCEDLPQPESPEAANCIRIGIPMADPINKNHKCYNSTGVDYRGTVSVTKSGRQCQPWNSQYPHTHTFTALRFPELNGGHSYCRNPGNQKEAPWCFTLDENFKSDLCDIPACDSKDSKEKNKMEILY
T3 sequence (Q01973 30-406 limits assumed): as above
Sequence of human ROR1 on cells (Q01973 30-937 limits assumed): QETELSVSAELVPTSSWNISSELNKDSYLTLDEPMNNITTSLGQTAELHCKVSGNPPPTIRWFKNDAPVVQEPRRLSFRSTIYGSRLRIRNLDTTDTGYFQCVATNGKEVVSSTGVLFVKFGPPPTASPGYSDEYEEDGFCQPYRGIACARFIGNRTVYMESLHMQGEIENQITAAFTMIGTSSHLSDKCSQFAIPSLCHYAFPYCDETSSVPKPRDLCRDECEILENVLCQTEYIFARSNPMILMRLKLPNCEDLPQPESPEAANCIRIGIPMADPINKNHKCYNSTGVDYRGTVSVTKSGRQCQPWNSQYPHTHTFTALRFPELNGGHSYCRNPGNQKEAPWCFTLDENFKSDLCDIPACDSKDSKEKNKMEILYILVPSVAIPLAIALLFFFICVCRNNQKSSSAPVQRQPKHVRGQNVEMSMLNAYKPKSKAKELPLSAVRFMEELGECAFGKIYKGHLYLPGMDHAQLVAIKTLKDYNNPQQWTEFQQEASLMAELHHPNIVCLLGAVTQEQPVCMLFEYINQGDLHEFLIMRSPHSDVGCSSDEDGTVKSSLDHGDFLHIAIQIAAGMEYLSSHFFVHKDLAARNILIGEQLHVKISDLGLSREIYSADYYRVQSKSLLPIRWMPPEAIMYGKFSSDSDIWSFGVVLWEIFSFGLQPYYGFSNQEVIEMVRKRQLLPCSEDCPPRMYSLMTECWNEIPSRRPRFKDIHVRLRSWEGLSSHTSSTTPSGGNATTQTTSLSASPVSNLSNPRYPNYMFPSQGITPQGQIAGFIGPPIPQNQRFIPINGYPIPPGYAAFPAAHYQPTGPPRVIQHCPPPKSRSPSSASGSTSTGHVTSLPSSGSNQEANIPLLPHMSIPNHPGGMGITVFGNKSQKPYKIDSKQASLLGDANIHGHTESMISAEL
T1 sequence (P09693 23-182 limits assumed, chain 1 of 3): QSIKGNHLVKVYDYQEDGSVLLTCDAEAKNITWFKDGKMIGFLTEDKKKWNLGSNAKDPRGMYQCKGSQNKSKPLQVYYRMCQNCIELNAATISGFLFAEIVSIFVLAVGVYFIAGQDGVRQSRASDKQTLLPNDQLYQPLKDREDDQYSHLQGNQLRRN
T1 sequence (P04234 22-171 limits assumed, chain 2 of 3): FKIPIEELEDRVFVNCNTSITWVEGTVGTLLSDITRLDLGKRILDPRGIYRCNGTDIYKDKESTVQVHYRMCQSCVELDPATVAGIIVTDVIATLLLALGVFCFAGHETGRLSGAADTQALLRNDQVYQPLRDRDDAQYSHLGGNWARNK
T1 sequence (P07766 23-207 limits assumed, chain 3 of 3): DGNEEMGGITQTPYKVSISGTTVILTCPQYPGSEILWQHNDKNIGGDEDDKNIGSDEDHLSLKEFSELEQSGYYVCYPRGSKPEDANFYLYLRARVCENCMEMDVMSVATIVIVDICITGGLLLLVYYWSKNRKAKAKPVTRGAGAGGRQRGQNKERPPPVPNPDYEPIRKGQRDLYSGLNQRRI

B1: Bispecific construct 14 (bispecific antibody, human IgG1, kappa)
heavy 1: not shown
heavy 2: QVQLVQSGAEVKKPGASVKVSCKASGYTFTRYTMHWVRQAPGQGLEWMGYINPSRGYTNYNQKFKDRVTLTTDKSSSTAYMELSSLRSEDTAVYYCARYYDDHYSLDYWGQGTLVTVSSGGGGSGGGGSGGGGSGGGGSDIQMTQSPSSLSASVGDRVTITCSASSSVSYMNWYQQKPGKAPKRLIYDTSKLASGVPSRFSGSGSGTDFTLTISSLQPEDFATYYCQQWSSNPFTFGQGTKLEIKEPKSSDKTHTCPPCPAPEAAGAPSVFLFPPKPKDTLMISRTPEVTCVVVDVSHEDPEVKFNWYVDGVEVHNAKTKPREEQYNSTYRVVSVLTVLHQDWLNGKEYKCKVSNKALPAPIEKTISKAKGQPREPQVYTLPPSRDELTKNQVSLSCAVKGFYPSDIAVEWESNGQPENNYKTTPPVLDSDGSFFLVSKLTVDKSRWQQGNVFSCSVMHEALHNHYTQKSLSLSPGK
light: DIVMTQTPLSLPVTPGEPASISCRASKSISKYLAWYQQKPGQAPRLLIYSGSTLQSGIPPRFSGSGYGTDFTLTINNIESEDAAYYFCQQHDESPYTFGEGTKVEIKRTVAAPSVFIFPPSDEQLKSGTASVVCLLNNFYPREAKVQWKVDNALQSGNSQESVTEQDSKDSTYSLSSTLTLSKADYEKHKVYACEVTHQGLSSPVTKSFNRGEC
notes: anti-CD3 scFv Ab9; ROR1 arm Ab1; valency 1/1
Turning to B1, in assay [1], the “EC50, LDH release, ROR1-transfected MEC” value was 5 ng/mL and 40 pM; the “Max. LDH Release, ROR1-transfected MEC” value stood at 48%. For the same molecule, the binding result in assay [2] is “binds”. Also, the Kd in assay [3] came out at 0.408 nM. In assay [4], the Kd stood at 0.109 nM.

B2: Bispecific construct 3 (bispecific antibody, human IgG1, kappa)
heavy: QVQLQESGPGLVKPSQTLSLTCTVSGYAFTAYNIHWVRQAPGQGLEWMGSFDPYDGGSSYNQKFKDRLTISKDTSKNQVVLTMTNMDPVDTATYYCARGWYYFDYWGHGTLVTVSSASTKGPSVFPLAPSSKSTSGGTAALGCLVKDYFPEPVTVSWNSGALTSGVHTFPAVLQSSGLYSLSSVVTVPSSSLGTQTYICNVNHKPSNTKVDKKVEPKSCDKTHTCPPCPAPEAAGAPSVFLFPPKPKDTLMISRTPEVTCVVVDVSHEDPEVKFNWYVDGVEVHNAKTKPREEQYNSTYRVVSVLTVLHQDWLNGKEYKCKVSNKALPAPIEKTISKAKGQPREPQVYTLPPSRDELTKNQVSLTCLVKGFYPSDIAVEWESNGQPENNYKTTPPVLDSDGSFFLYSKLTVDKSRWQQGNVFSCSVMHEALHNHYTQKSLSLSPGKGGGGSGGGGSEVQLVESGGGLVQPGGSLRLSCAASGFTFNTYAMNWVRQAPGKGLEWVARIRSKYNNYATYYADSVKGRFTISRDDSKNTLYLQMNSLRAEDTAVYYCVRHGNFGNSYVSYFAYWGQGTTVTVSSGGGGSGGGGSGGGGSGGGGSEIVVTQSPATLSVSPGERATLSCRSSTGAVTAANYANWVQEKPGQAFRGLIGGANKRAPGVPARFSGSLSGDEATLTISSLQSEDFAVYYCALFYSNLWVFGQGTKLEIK
light: DIVMTQTPLSLPVTPGEPASISCRASKSISKYLAWYQQKPGQAPRLLIYSGSTLQSGIPPRFSGSGYGTDFTLTINNIESEDAAYYFCQQHDESPYTFGEGTKVEIKRTVAAPSVFIFPPSDEQLKSGTASVVCLLNNFYPREAKVQWKVDNALQSGNSQESVTEQDSKDSTYSLSSTLTLSKADYEKHKVYACEVTHQGLSSPVTKSFNRGEC
notes: anti-CD3 scFv Ab10 (SP34-based); ROR1 arm Ab1; valency 2/2
B2: in assay [2], the binding result is “binds”. Also, the Kd was found to be 0.233 nM in assay [3] and 0.147 nM in assay [4].

B3: Bispecific construct 6 (bispecific antibody, human IgG1, kappa)
heavy: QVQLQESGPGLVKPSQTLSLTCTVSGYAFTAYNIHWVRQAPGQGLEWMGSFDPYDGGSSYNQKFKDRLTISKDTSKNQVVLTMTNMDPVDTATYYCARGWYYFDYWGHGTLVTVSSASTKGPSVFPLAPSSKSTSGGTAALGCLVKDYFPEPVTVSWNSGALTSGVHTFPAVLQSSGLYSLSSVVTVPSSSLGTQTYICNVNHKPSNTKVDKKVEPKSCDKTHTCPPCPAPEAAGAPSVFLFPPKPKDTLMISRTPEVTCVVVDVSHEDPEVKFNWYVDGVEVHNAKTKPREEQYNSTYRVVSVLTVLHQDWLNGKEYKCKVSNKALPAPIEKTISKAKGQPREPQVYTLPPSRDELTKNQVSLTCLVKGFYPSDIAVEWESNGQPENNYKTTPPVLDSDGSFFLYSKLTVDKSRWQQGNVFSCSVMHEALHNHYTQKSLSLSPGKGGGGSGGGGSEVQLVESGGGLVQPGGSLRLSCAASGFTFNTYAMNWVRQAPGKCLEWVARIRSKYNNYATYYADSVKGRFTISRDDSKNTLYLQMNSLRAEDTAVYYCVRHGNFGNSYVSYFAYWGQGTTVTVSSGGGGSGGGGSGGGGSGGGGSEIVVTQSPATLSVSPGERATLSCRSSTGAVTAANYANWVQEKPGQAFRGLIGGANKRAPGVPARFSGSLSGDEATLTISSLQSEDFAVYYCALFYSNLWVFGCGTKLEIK
light: DIVMTQTPLSLPVTPGEPASISCRASKSISKYLAWYQQKPGQAPRLLIYSGSTLQSGIPPRFSGSGYGTDFTLTINNIESEDAAYYFCQQHDESPYTFGEGTKVEIKRTVAAPSVFIFPPSDEQLKSGTASVVCLLNNFYPREAKVQWKVDNALQSGNSQESVTEQDSKDSTYSLSSTLTLSKADYEKHKVYACEVTHQGLSSPVTKSFNRGEC
notes: disulfide-stabilized anti-CD3 scFv Ab10; ROR1 arm Ab1; valency 2/2
Take B3: the binding result in assay [2] is on record as “binds”. The figures for the Kd in assay [3] and in assay [4] were 0.033 nM and 0.082 nM, respectively.

B4: Bispecific construct 15 (bispecific antibody, human IgG1, kappa)
heavy 1: not shown
heavy 2: EVQLVESGGGLVQPGGSLRLSCAASGFTFNTYAMNWVRQAPGKGLEWVARIRSKYNNYATYYADSVKGRFTISRDDSKNTLYLQMNSLRAEDTAVYYCVRHGNFGNSYVSYFAYWGQGTTVTVSSGGGGSGGGGSGGGGSGGGGSEIVVTQSPATLSVSPGERATLSCRSSTGAVTAANYANWVQEKPGQAFRGLIGGANKRAPGVPARFSGSLSGDEATLTISSLQSEDFAVYYCALFYSNLWVFGQGTKLEIKEPKSSDKTHTCPPCPAPEAAGAPSVFLFPPKPKDTLMISRTPEVTCVVVDVSHEDPEVKFNWYVDGVEVHNAKTKPREEQYNSTYRVVSVLTVLHQDWLNGKEYKCKVSNKALPAPIEKTISKAKGQPREPQVYTLPPSRDELTKNQVSLSCAVKGFYPSDIAVEWESNGQPENNYKTTPPVLDSDGSFFLVSKLTVDKSRWQQGNVFSCSVMHEALHNHYTQKSLSLSPGK
light: DIVMTQTPLSLPVTPGEPASISCRASKSISKYLAWYQQKPGQAPRLLIYSGSTLQSGIPPRFSGSGYGTDFTLTINNIESEDAAYYFCQQHDESPYTFGEGTKVEIKRTVAAPSVFIFPPSDEQLKSGTASVVCLLNNFYPREAKVQWKVDNALQSGNSQESVTEQDSKDSTYSLSSTLTLSKADYEKHKVYACEVTHQGLSSPVTKSFNRGEC
notes: anti-CD3 scFv Ab10 (SP34-based); ROR1 arm Ab1; valency 1/1
As to B4, in assay [2], the binding result is “binds”. Further, the values for the Kd in assay [3] and in assay [4] were 0.301 nM and 0.157 nM, respectively.

B5: Bispecific construct 11 (bispecific antibody, human IgG1, kappa)
heavy: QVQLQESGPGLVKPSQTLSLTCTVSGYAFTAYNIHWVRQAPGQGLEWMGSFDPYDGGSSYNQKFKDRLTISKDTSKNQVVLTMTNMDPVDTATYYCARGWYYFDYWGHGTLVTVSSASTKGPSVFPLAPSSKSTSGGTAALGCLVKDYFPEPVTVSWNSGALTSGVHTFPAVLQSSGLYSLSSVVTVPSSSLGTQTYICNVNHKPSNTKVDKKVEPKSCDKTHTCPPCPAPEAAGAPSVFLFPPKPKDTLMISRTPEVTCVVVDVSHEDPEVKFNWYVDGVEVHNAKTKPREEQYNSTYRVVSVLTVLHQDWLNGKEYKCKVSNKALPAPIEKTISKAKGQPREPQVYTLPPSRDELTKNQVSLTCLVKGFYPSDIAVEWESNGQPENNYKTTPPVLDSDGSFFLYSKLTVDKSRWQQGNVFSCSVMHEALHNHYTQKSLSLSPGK
light: DIVMTQTPLSLPVTPGEPASISCRASKSISKYLAWYQQKPGQAPRLLIYSGSTLQSGIPPRFSGSGYGTDFTLTINNIESEDAAYYFCQQHDESPYTFGEGTKVEIKRTVAAPSVFIFPPSDEQLKSGTASVVCLLNNFYPREAKVQWKVDNALQSGNSQESVTEQDSKDSTYSLSSTLTLSKADYEKHKVYACEVTHQGLSSPVTKSFNRGECGGGGSGGGGSQVQLVQSGAEVKKPGASVKVSCKASGYTFTRYTMHWVRQAPGQCLEWMGYINPSRGYTNYNQKFKDRVTLTTDKSSSTAYMELSSLRSEDTAVYYCARYYDDHYSLDYWGQGTLVTVSSGGGGSGGGGSGGGGSGGGGSDIQMTQSPSSLSASVGDRVTITCSASSSVSYMNWYQQKPGKAPKRLIYDTSKLASGVPSRFSGSGSGTDFTLTISSLQPEDFATYYCQQWSSNPFTFGCGTKLEIK
notes: disulfide-stabilized anti-CD3 scFv Ab9; ROR1 arm Ab1; valency 2/2
In the case of B5, the binding result in assay [2] is given as “binds”. Also, the values for the Kd in assay [3] and in assay [4] were 0.092 nM and 0.073 nM, respectively.

B6: Bispecific construct 10 (bispecific antibody, human IgG1, kappa)
heavy: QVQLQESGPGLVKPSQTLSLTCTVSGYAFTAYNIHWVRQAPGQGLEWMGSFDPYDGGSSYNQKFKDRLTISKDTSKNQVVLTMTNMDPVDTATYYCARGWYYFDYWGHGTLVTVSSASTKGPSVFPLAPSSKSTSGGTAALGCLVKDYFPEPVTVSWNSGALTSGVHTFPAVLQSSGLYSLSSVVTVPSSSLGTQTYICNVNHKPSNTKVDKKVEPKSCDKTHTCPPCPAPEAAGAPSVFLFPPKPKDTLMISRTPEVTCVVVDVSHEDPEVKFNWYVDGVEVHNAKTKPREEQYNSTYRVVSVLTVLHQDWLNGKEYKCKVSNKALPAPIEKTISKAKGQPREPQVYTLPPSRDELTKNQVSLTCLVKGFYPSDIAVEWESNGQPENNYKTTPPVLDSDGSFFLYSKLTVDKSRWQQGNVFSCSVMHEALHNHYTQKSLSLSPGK
light: DIVMTQTPLSLPVTPGEPASISCRASKSISKYLAWYQQKPGQAPRLLIYSGSTLQSGIPPRFSGSGYGTDFTLTINNIESEDAAYYFCQQHDESPYTFGEGTKVEIKRTVAAPSVFIFPPSDEQLKSGTASVVCLLNNFYPREAKVQWKVDNALQSGNSQESVTEQDSKDSTYSLSSTLTLSKADYEKHKVYACEVTHQGLSSPVTKSFNRGECGGGGSGGGGSQVQLVQSGGGVVQPGRSLRLSCKASGYTFTRYTMHWVRQAPGKCLEWIGYINPSRGYTNYNQKVKDRFTISRDNSKNTLYLQMDSLRAEDTAVYYCARYYDDHYSLDYWGQGTTVTVSSGGGGSGGGGSGGGGSGGGGSDIQMTQSPSSLSASVGDRVTITCSASSSVSYMNWYQQKPGKAPKRWIYDTSKLASGVPSRFSGSGSGTDFTFTISSLQPEDIATYYCQQWSSNPFTFGCGTKLEIK
notes: disulfide-stabilized anti-CD3 scFv Ab8; ROR1 arm Ab1; valency 2/2
In the case of B6, in assay [2], the binding result is given as “binds”. Further, the Kd stood at 0.144 nM in assay [3] and 0.094 nM in assay [4].

The record behind these values is patent US20220227866A1 (VELOSBIO, published 2022).
